In the supplement of paper PMC7125110:
± gives the standard error. Variants at the floor of the assay were thinned out.

B1: glmS ribozyme (parent)
chain: AUAAAAGCGCCAGAACUACAGAAAUGUAGUUGACGAGGAGGAGGUUUAUCGAAUUUUCGGCGGAUGCCUCCAAA

Assays:
Details in all cases: with glucosamine-6-phosphate
[1] = variants of: B1; assay: self-cleavage kobs at 40 uM GlcN6P; higher = faster cleavage; RNA array
How it was run: (§1)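 Glucosamine-6-phosphate in HEPES/KCl/Mg(OAc)2 buffer, at 40 μM to 10 mM, was flowed over barcoded ribozyme variants transcribed in situ by E. coli RNA polymerase on sequenced MiSeq chips. Tracking was through a hybridised Cy3 probe at 37 °C. kobs, kcat and KM came from exponential decay fits and weighted Michaelis–Menten fits of normalised per-tile medians.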

[2] = variants of: B1; assay: self-cleavage kobs at 160 uM GlcN6P; higher = faster cleavage; RNA array
How it was run: as §1

[3] = variants of: B1; assay: self-cleavage kobs at 640 uM GlcN6P; higher = faster cleavage; RNA array
How it was run: as §1

[4] = variants of: B1; assay: self-cleavage kobs at 10000 uM GlcN6P; higher = faster cleavage; RNA array
How it was run: as §1

[5] = variants of: B1; assay: self-cleavage kobs at 2500 uM GlcN6P; higher = faster cleavage; RNA array
How it was run: as §1

Variant | self-cleavage kobs at 40 uM GlcN6P [1] [s⁻¹] | self-cleavage kobs at 160 uM GlcN6P [2] [s⁻¹] | self-cleavage kobs at 640 uM GlcN6P [3] [s⁻¹] | self-cleavage kobs at 10000 uM GlcN6P [4] [s⁻¹] | self-cleavage kobs at 2500 uM GlcN6P [5] [s⁻¹]
G32A U57G | < 1e-05 | – | – | – | –
A33C G60U | < 1e-05 | < 1e-05 | < 1e-05 | < 1e-05 | –
G41U G59U | < 1e-05 | < 1e-05 | < 1e-05 | – | –
U31C G63C | < 1e-05 | < 1e-05 | < 1e-05 | < 1e-05 | –
C34A G37U G44U | < 1e-05 | – | – | – | –
A33U A36G G41C A53G | < 1e-05 | – | – | < 1e-05 | –
C10G A48U | < 1e-05 | < 1e-05 | < 1e-05 | < 1e-05 | < 1e-05
G9A G41U | < 1e-05 | < 1e-05 | < 1e-05 | – | < 1e-05
G9C U57C C71A | < 1e-05 | – | – | < 1e-05 | –
G9A C34A G44U U54A C68A | < 1e-05 | – | – | – | –
A15U C50G | 3.42e-05 ± 8.1e-06 | 8.86e-05 ± 1.4e-05 | 0.000494 ± 0.00023 | – | 7.94e-05 ± 1.4e-05
A6U A15G U31G G41A | < 1e-05 | – | – | < 1e-05 | –
G63U A64C C67G C70U | < 1e-05 | – | < 1e-05 | < 1e-05 | –
C34A A52G | < 1e-05 | < 1e-05 | < 1e-05 | < 1e-05 | < 1e-05
A12G G13A C61G | < 1e-05 | – | – | < 1e-05 | –
C10U G62U | < 1e-05 | < 1e-05 | < 1e-05 | < 1e-05 | < 1e-05
G51C C58A C70A | < 1e-05 | – | – | – | –
C8G C11A C50G | 0.000193 ± 4.9e-05 | – | – | – | –
G43A G62C U65C C68G | < 1e-05 | – | – | – | –
A39U G66U C67U | 3.54e-05 ± 1.2e-05 | – | – | – | –
C8U G63U | < 1e-05 | < 1e-05 | < 1e-05 | – | –
U2C | 0.000889 ± 0.00014 | – | 0.0102 ± 0.0023 | 0.0584 ± 0.014 | 0.00926 ± 0.003
G7U A33U A52G | < 1e-05 | – | – | – | –
A53U U55C | 0.000338 ± 7.3e-05 | 0.00118 ± 0.0004 | 0.00434 ± 0.00089 | 0.0266 ± 0.0065 | 0.00602 ± 0.0019
G43U C61G | < 1e-05 | – | < 1e-05 | < 1e-05 | < 1e-05

Variant | self-cleavage kobs at 40 uM GlcN6P [1] [s⁻¹] | self-cleavage kobs at 160 uM GlcN6P [2] [s⁻¹] | self-cleavage kobs at 640 uM GlcN6P [3] [s⁻¹] | self-cleavage kobs at 10000 uM GlcN6P [4] [s⁻¹] | self-cleavage kobs at 2500 uM GlcN6P [5] [s⁻¹]
C8U A12C C61G | < 1e-05 | – | – | < 1e-05 | < 1e-05
G40U G63A | < 1e-05 | < 1e-05 | < 1e-05 | < 1e-05 | < 1e-05
G35C G63A | < 1e-05 | < 1e-05 | < 1e-05 | < 1e-05 | –
A14U G37U | < 1e-05 | – | < 1e-05 | < 1e-05 | –
A36U G41U C70G | < 1e-05 | – | – | – | –
A14G G37A G63U | < 1e-05 | – | – | < 1e-05 | –
G9A C11G A53G | < 1e-05 | – | – | – | –
G13C G60A U65G G66C C71U | < 1e-05 | – | – | < 1e-05 | –
A48G U54A C61U | < 1e-05 | – | – | – | –
C16G U54G G60A C70A | < 1e-05 | – | 0.000647 ± 0.0003 | – | 3.79e-05 ± 1.7e-05
C10U G37A | < 1e-05 | < 1e-05 | – | < 1e-05 | –
U57A G59U | < 1e-05 | < 1e-05 | < 1e-05 | < 1e-05 | –
G43C A52U | < 1e-05 | < 1e-05 | < 1e-05 | < 1e-05 | < 1e-05
C50G G59C C67G | 0.00018 ± 5.4e-05 | – | – | 0.000119 ± 2.8e-05 | –
A15U A36U G60A | < 1e-05 | – | – | – | –
A48C A64C | < 1e-05 | < 1e-05 | – | – | < 1e-05
G29A U49C U69A | < 1e-05 | – | – | < 1e-05 | –
A15U G43A G44U G62A | < 1e-05 | – | – | < 1e-05 | –
A52G A53C U54A | < 1e-05 | – | – | – | –
U47A A53U | 0.000547 ± 6.1e-05 | 0.00098 ± 0.0002 | 0.00349 ± 0.00062 | 0.0124 ± 0.0022 | 0.00324 ± 0.00072
C16G G41C C68G | < 1e-05 | – | – | < 1e-05 | –
A6G G9A G38A G41A U57A | < 1e-05 | < 1e-05 | < 1e-05 | – | < 1e-05
G37A A53G G60U C61U G63A | < 1e-05 | – | – | – | –
A14U G51A | < 1e-05 | – | – | < 1e-05 | –
